Data on one molecule can be found in US6835378B2, “Method and compositions for inhibiting thrombin-induced coagulation” (The Texas A&M University System University, priority 2001, dated 2004).

This assay concerns contortrixobin digestion of Fg. Description: Fibrinopeptide B release by contortrixobin, HPLC. It is filed as biochemical, human. As to conditions: 1:5 ratio of Fg to rSdrG(50-597) (1.5 μM), 60 min. The method, then:
Superimposed chromatograms show the amount of fibrinopeptide released when the Fg-contortrixobin sample has no SdrG present (upper curve) and when the Fg-contortrixobin sample is incubated with 1.5 μM rSdrG(50-597) (lower curve) at the 60 min time point.
Analysis of Fibrinopeptide B Release by HPLC—As in chapter two, we monitored the fibrinopeptide release in the presence of SdrG and the β-fibrinogenase contortrixobin. The HPLC chromatograms shown in FIG. 10 show the expected fibrinopeptide release following digestion of Fg with contortrixobin superimposed with the fibrinopeptide release when Fg and contortrixobin are incubated with rSdrG(50-597). […] This is most likely because FpA is still intact on the Fg molecule, thus contortrixobin is not as effective at cleaving Fg due to steric hindrance from FpA.

Entries after “also recorded” stand apart in the source; their conditions may differ.

B1: rSdrG(50-597): recombinant His-tagged A region (residues 50-597) of SdrG, a fibrinogen-binding MSCRAMM from S. epidermidis (protein)
chain: HHHHHHAEENTVQDVKDSNMDDELSDSNDQSSNEEKNDVINNSQSINTDDDNQIKKEETNSNDAIENRSKDITQSTTNVDENEATFLQKTPQDNTQLKEEVVKEPSSVESSNSSMDTAQQPSHTTINSEASIQTSDNEENSRVSDFANSKIIESNTESNKEENTIEQPNKVREDSITSQPSSYKNIDEKISNQDELLNLPINEYENKVRPLSTTSAQPSSKRVTVNQLAAEQGSNVNHLIKVTDQSITEGYDDSDGIIKAHDAENLIYDVTFEVDDKVKSGDTMTVNIDKNTVPSDLTDSFAIPKIKDNSGEIIATGTYDNTNKQITYTFTDYVDKYENIKAHLKLTSYIDKSKVPNNNTKLDVEYKTALSSVNKTITVEYQKPNENRTANLQSMFTNIDTKNHTVEQTIYINPLRYSAKETNVNISGNGDEGSTIIDDSTIIKVYKVGDNQNLPDSNRIYDYSEYEDVTNDDYAQLGNNNDVNINFGNIDSPYIIKVISKYDPNKDDYTTIQQTVTMQTTINEYTGEFRTASYDNTIAFSTSSGQGQGDLPPE
B1: the “FpB release by contortrixobin” value is recorded as “effectively inhibit FpB release; also recorded: decrease in the amount of FpB released”. Besides, where the note is “listed as rSdrG (50-597)”, the “FpB release by contortrixobin” value was “A decrease in the amount of FpB release”.
